Where no end group is shown, it is not given here.
What follows are binders tested against GST-KIX (assay: fluorescence polarization).
Chain of GST-KIX (P45481 586-665): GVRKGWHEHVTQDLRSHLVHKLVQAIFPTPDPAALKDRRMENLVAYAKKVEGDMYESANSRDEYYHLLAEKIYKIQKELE

Kd | Binder
681 nM | GASPHTSSGDDAPVRRLSFFDILLDLYLDAPC(acetamidofluorescein) (designed binder) [unphosphorylated PPKID3]
73 nM | GASPHTSSGDDAPVRRLSFFDILLDLYLDAPC(acetamidofluorescein) (designed binder, also: phosphorylated, site not given here) [phosphorylated PPKID3]
31 nM | GASDMTYWGDDAPVRRLSFFYILLDLYLDAPC(acetamidofluorescein) (designed binder, also: phosphorylated, site not given here) [phosphorylated PPKID1]
7600 nM | GMSRVTPGGDDAPVRRLSFFYILRDLYLDAPC(acetamidofluorescein) (designed binder) [unphosphorylated PPKID2]
280 nM | GMSRVTPGGDDAPVRRLSFFYILRDLYLDAPC(acetamidofluorescein) (designed binder, also: phosphorylated, site not given here) [phosphorylated PPKID2]

— patent EP1724347A2
